Test results: the DeepSol protein solubility set

Test: soluble on expression in E. coli; label from the status in PepcDB or PDB records

| Sequence | soluble on expression in E. coli |
| --- | --- |
| MGLRPVSYTDSSVTPSVDGSIVLTAASVQSMPDSEESRLYGDDATYLAEGGRRQCPYTSNGPTFMETASFKKKRSKSADIWREDSLEFSLSDLSQEHLTSNEEILGSAEEKDCEEARGMETEASPRQLSTCQRANSLGDLYAQKNSGVKANGGPRNRFSSYCRNLVSDIPDLAKHKMPPAAAEETPPYSNYNTLPCRKSHCLSEGATNPQISLSKSMQGRRAKTTQDVNTGEGSEFADSGIEGATTDTDLLSRRSNATNSSYSPPTGRAFVGSDSGSSSTGDAARQGVYENFRRELEMSTTNSESLEEAGSAHSDEQSSGTLSSPGQSDILLTAAQGTVRKAGALAVKNFLVHKKNKKVESATRRKWKHYWVSLKGCTLFFYETDGRSGIDHNSVPKHAVWVENSIVQAVPEHPKKDFVFCLSNSLGDAFLFQTTSQTELENWITAIHSACAAAVARHHHKEDTLRLLKSEIKKLEQKIDMDEKMKKMGEMQLSSVTDSKKKKTILDQIFVWEQNLEQFQMDLFRFRCYLASLQGGELPNPKRLLAFASRPTKVAMGRLGIFSVSSFHALVAARTGEIGVRRRTQAMSRSASKRRSRFSSLWGLDTTSKKKQGRPTINQVFGEGTDAVKRSLEGIFDDTVPDGKREKEVVLPSVHQHNPDCDIWVHEYFTPSWFCLPNNQPALTVVRPGDTARDTLELICKTHQLDHSAHYLRLKFLMENRVQFYIPQPEEDIYELLYKEIEICPKVTQNIHIEKSDAAADNYGFLLSSVDEDGIRRLYVNSVKETGLASKKGLKAGDEILEINNRAAGTLNSSMLKDFLSQPSLGLLVRTYPEPEGGVELLENPPHRVDGPVDLGESPLAFLTSNPGHSLSSEQGSSAETAPEEGEGPDLESSDETDHSSKSTEQVAAFCRSLHEMSPSDSSPSPQDATSPQLATTRQLSDADKLRKVICELLETERTYVKDLNCLMERYLKPLQKETFLTQDELDVLFGNLTEMVEFQVEFLKTLEDGVRLVPDLEKLEKVDQFKKVLFSLGGSFLYYADRFKLYSAFCASHTKVPKVLVKAKTDTAFKAFLDAQNPRQQHSSTLESYLIKPIQRVLKYPLLLRELFALTDAESEEHYHLDVAIKTMNKVASHINEMQKIHEEFGAVFDQLIAEQTGEKKEVADLSMGDLLLHTSVIWLNPPASLGKWKKEPELAAFVFKTAVVLVYKDGSKQKKKLVGSHRLSIYEEWDPFRFRHMIPTEALQVRALPSADAEANAVCEIVHVKSESEGRPERVFHLCCSSPESRKDFLKSVHSILRDKHRRQLLKTESLPSAQQYVPFGGKRLCALKGARPAMSRAVSAPSKSLGRRRRRLARNRFTIDSDAISASSPEKEPQQPAGGGDTDRWVEEQFDLAQYEEQDDIKETDILSDDDEFCESLKGASVDRDLQEQLQAASISQRARGRRTLDSHASRMTQLKKQAALSGINGGLESASEEVIWVRREDFAPSRKLNTEI | soluble |
| MAHHHHHHMDGEAAAPTGGAGPKYIVEHLDELEEWSILEYIHICETVKDQNVIFTKFDRPFGEVSEEHNPTCYKQPISELKDKFEWKKICLLDMKATSTLTCSDREHLDYLLFGGILGNVPSDDRTSILRKCQFVISRNLGDMQMTTNTAVLVCHIILDKHVEFKDIPFVDSPEIPLRNEKETMVLPFRFVSKSFFTGMEGDRNVPVLPRNFTEYLIGLGDQRVGDLDEFLSGVVV | soluble |
| MAHHHHHHMLSSAAPKRYKFDQRGNLTEVNFLACKSVVPPRTYVHSKNSLTCSTSVIPELHQTAHHCKGRSGANGTSGTNGKSGSTSKMAMSQENIFEAEAISTNAYAHGGGPSSLHSMNMVHSVSSVGSGGNDPSQYVPNQCGNMNMMGTGLSGHEMNNNAPLLFVDGAPYCADDAGQGIDPGVVAVSNALFAYNSAFQSIPIKTSPNVFRRRTKGEGNSEWCNAFVTRVDPCECGDPDEQFKPYEVTKYYDDGQVKTVFNFDQDSAPQEQLM | soluble |
| MHEYSIVSALIEQCEQYAKANQATKVTRVEIKLGVMSGVEPALLQTAFETFKLDGICREAKLCMTLQPLVIKCADCQQESVLDERSIVCPACNSYHTRVLDGEEMLLMQLEMEQAEDA | soluble |
| GVNPRGLGPLQIWQTDFTLEPRMAPRSWLAVTVDTASSAIVVTQHGRVTSVAVQHHWATAIAVLGRPKAIKTDNGSCFTSKSTREWLARWGIAHTTGIPGNSQGQAMVERANRLLKDRIRVLAEGDGFMKRIPTSKQGELLAKAMYALNHKERGENTKTPIQKHWRPTVLTEGPPVKIRIETGEWEKGWNVLVWGRGYAAVKNRDTDKVIWVPSRKVKPDITQKDEVTKKDEASPLFA | soluble |
| MGHHHHHHSHMCSSGGPVDRAPDSSKDGKNHHKTMGHYNHNDSLRKTQINSLKNSVACPGAQKAITSSEAVDRFMPRTTQLQERKRRREDDRKLGTFLQTNPTGNEIMIGPLLPDISKVDMHDDSLNTTANLIRHKLKEVISSVPKPPEDKPEDVHTSRPLKQRRRI | soluble |
| DVSGTVCLSALPPEATDTLNLIASDGPFPYSQDGVTFQNRESVLPTQSYGYYHEYTVITPGARTRGTRRIITGEATQEDYYTGDHYATFSLIDQTC | soluble |
| FCKELPRPELPYSEMSAIGSLIQALPASCALHLANSSAVRYAQLYSLPDTVEVCCNRGTSGIEGSLSTAIGYAAASKKLNFVVIGDLSFFYDMNALWNNHFGSNLRILLLNNGGGEIFHTLPGLEMSGTSHRFVTAVHKTSAKGWAEERGFLYQEVQDEKQLDEAMKTFTQPELLTQPVIMEVFTNKNKDARILKDYYHQLKN | not soluble |
| MGHHKAMPYADVAAFIIELRKREAVAATALEFTILTAARSGETLGAKWHEIDWKDKIWTVPAERMKAAREHRVPLSSRTITILKKLAEFGSDENSFVFPGQKPGKPLSVMAMDMVLRRMEVDVTVHGFRSSFRDWCGEVSNFPRDVAEAALAHLEHHHHHH | soluble |
| TKDWDWNIEINLGHNKNKLKKLYKTKNAEGQFVEKPIIISDGTSIAGTAKRVLQPGYPCDTYYLKEWAGVNPENGAPQWYKTVENEDGTLSRQKTSNYSEADQVKCGSSSPDIFGGFSTVLRWKDIDLNAVFGYSVGGQIYNYSRQEYDSDGAYNDRNQMKLQKGWNRWEKPGDIATHPVASYSNTSKSNSSSSRYLEKNDYLKLRSLSIGYNLKLPQYYINNMRIFFTGENLFCVTNYSGVDPEIPASDGSVIGTALPSVYPTVRKFMFGLNLTF | not soluble |
| MKNNKPICFYDIYCFKPQECFKRNDINLLEDKLKRYSKITFLRNKENPEIIFLLGGDGSFINFINQQWKKNVKIVGINYGQLGFYSSYDSIKTINLDEIIDENMYYNPLLLKVSINNQNFFYCLNELSLFSNELVSFDISINDYPYEKFRGSGLLFVTPSGSTGKNKTAFGPIIFNNHENFIMTEIFPVNHLKYSSLNAPVVFRKDYKISLTNIKFKKSFSVAIDGNIINFSDKINDIKVETIQASSKIHGLNNFKKYIDKLNKSFIKGEMAGDPLEHHHHHH | soluble |
| MNQKDTRKETLEFNKLQKRLRRNVGNAITDYNMIEEGDVVMACISGGKDSFAMLDILLNLQKAAPIKFEVVAVNLDQKQPGFPEHILPEYFETLNIPYYIVDKDTYSVVKEKVPEGKTTCGLCSRLRRGTLYSFAEKIGATKLALGHHMDDIVETMFLNMFHGSRLKAMPPKLRSDDGRNVVIRPLTYCREKDLIKYAEHKDFPIIPCNL | not soluble |
| MGSDKIHHHHHHMKIVYIITQATWGGAQAHLYSLIKAQVMRGNAVALVYGVEGRLSASVAKEFQDVQVVRVASLVHPIAPLSDLKAIYTLRKLVKNWQPDIIHLHSSKAGMIGRLATIRLPMKVIFTVHGWGFTPGVGKKRQLLMKTIEKALSRLTTAYICVSQFDYDLGVQSGVITSAHPARVIHNGVTALTGANKATSSEVFVLSMAARFDTPKRQDILIQALTYLPENLPIVCHFLGDGPSIEACKTLTHQLNLDGKVNFYGVVDNVQKYYSQSDVGVLISDYEALPISLVEALAQGLPIIASNVGGIQELIDHNGFLVTNDARQIAEKILTLYQSKKIAEVKTNSYQMYQRHYTEHEMLEQTQAYYLRCLA | not soluble |
| MPKKILFTGGGTVGHVTLNLILIPKFIKDGWEVHYIGDKNGIEHTEIEKSGLDVTFHAIATGKLRRYFSWQNLADVFKVALGLLQSLFIVAKLRPQALFSKGGFVSVPPVVAAKLLGKPVFIHESDRSMGLANKIAYKFATTMYTTFEQEDQLSKVKHLGAVTKVFKDANQMPESTQLEAVKEYFSRDLKTLLFIGGSAGAHVFN | not soluble |
| MSDEIARLVADVFELAGLLRRSGEVVAAREGHTQARWQLLSVVSDRALTVPQAARRLGVTRQGVQRVANDLVVCGLAELRHNPDHRTSPLLVLTENGRRVLQAITERAIVVNNRLADAVDPAALQATRDSLRRMIVALKAERP | not soluble |
| MAGDPMTELEMHLLNALEQLQQDYTQRLKDWESPFTDLQHMFELTRQENGQLREQCDDLSQQVQRLAGQVDHLSRLFITNSRLEHHHHHH | not soluble |
| MSRSQLTILTNICLIEDLETQRVVMQYRAPENNRWSGYAFPGGHVENDEAFAESVIREIYEETGLTIQNPQLVGIKNWPLDTGGRYIVICYKATEFSGTLQSSEEGEVSWVQKDQIPNLNLAYDMLPLMEMMEAPDKSEFFYPRRTEDDWEKKIF | soluble |
| MFVYYIYTIIKSQSKSTPHHYHPCWSNSAAGLKKWGGFMNIKNNRRRRASRDAIENIFIELLQTKSLNEITVSDICKKAGLNRSTFYANYMDIYQLADTIRETLEDNLNDLYRSEIAGGYNSNDYLPLFRHIKENQPFYNTYFKLGYDNQYKIFKYDTALARDHFGNRFIDYHCEFFKSGITAIIKHWLSNGCLETPEEINGILMSEYRGRKMEET | not soluble |
| MGSDKIHHHHHHMHSPRELALLYRQGKNITQLMRDERGLIHNSNEIIEISYDLQAGSYIESMGEAWMAEHNAEYCQQLAKVILSLCNPDSILEAGIGEATTLADLLPHLSKKISSYGFDISWSRVAYGKQWLQQQGISNTVLCTGNLCHIPFADNAVELVYTSHSLEPNGGNEAAILKELYRVTSKFLVLLEPGYELANKDAKHRMEQHGYCRNIKSIAQSLGYRILLHEFFPSSVNPLNPTVITIIEKPPSFEPAKHILACPKYKTPLENIENMLFSPESLMVYPIVGGIPCLGINNGLVASKFRELISKG | not soluble |
| MSLDSQVLEHVLPSHFAKYDKGGDEFYDLISAFHKSVRGSAPDAALYWYCRILAGGGDPLYVARRLLAIATEDIGNADPRAMQVALNAWDIFQRVGPSEGERAIAQATLYLASAPKSNAVYTAFNQAKHDAAHLPSYPVPEHLRNAPTQIMKELGFGAQYRYAHDEVGAFAAGENYFPEILKTKHYYQPTDRGLEKQIKDKLDYLASQNNQSENKRYDEGHHHHHH | soluble |
| GSMTQIHQINDIDVHRITSGQVITDLTTAVKELVDNSIDANANQIEIIFKDYGLESIECSDNGDGIDPSNYEFLALKHYTSKIAKFQDVAKVQTLGFRGEALSSLCGIAKLSVITTTSPPKADKLEYDMVGHITSKTTTSRNKGTTVLVSQLFHNLPVRQKEFSKTFKRQFTKCLTVIQGYAIINAAIKFSVWNITPKGKKNLILSTMRNSSMRKNISSVFGAGGMRGLEEVDLVLDLNPFKNRMLGKYTDDPDFLDLDYKIRVKGYISQNSFGCGRNSKDRQFIYVNKRPVEYSTLLKCCNEVYKTFNNVQFPAVFLNLELPMSLIDVNVTPDKRVILLHNERAVIDIFKTTLSDYYNRQELALPK | soluble |
